# Paper PMC12133150
# Molecular target: TET2 (UniProt Q6N021)
# Assay: co-IP of transfected HNF4α with TET2
# Details: reference: wild type; sites S313
substance,measurement,value
HNF4α (from UniProt P41235) S313A,binding against the reference,stronger
